Data from IntAct's records for PubMed 24525234.

B1: Rho guanine nucleotide exchange factor 2 (Mus musculus), Q60875 (parent)
chain: MSRIESLTRARIDRSKEQATKTREKEKMKEAKDARYTNGHLFTTISVSGMTMCYACNKSITAKEALICPTCNVTIHNRCKDTLANCTKVKQKQQKAALLRNNTALQSVSLRSKTTTRERPTSAIYPSDSFRQSLLGSRRGLSSLSLAKSVSTTNIAGHFNDESPLGLRQILSQSTDSLNMRNRTLSVESLIDEGVEVFYNELMSDFEMDEKDFEADSWSLAVDSSFLQQHKKEVMKKQDVIYELIQTELHHVRTLKIMTRLFRTGMLEELQMEPEVVQGLFPCVDELSDIHTRFLNQLLERRRQALCPGSTRNFVIHRLGDLLISQFSGSNAEQMRKTYSEFCSRHTKALKLYKELYARDKRFQQFIRKMTRSAVLKRHGVQECILLVTQRITKYPVLINRILQNSHGVEEEYQDLASALGLVKELLSNVDQDVHELEKEARLQEIYNRMDPRAQTPVPGKGPFGRDELLRRKLIHEGCLLWKTATGRFKDVLLLLMTDVLVFLQEKDQKYIFTSLDKPSVVSLQNLIVRDIANQAKGMFLISSGPPEMYEVHAASRDDRTTWIRVIQQSVRLCPSREDFPLIETEDKAYLRRIKTKLQQKNQALVELLQKNVELFAEMVHFQALKAGFVGMPPPALPRGLFRLESFESLRGERLLKDALREVEGLKDLLLGPCVDLPMTSREPALPLDSDSGSCPGVTANGEARTFNGSIELCRADSDSSQKDRNGNQLRSPQEEVLQPLINLYGLLHGLQAVVVQQERLMEALFPEGPERWEKLSRANSRDGEAGRAAVASVTPEKQATELALLQRQHTLLQEELRRCQRLGEERATEAGSLEARLRESEQARALLEREAEEIRRQLAALGQNEPLPAEAPWARRPLDPRRRSLPAGDALYLSFNPPQPSRGHDRLDLPVTVRSLHRPFDDREAQELGSPEDRLQDSSDPDTGSEEEVSSRLSPPHSPRDFTRMQDIPEETESRDGEPTASES

Variants of: B1
Details: with rhoa_human RHOA

Row | effect of a mutation on the interaction | Variant
1 | disrupting interaction | E243K
